Source: US20110135634A1, “METHODS OF INHIBITING INFECTION BY DIVERSE SUBTYPES OF DRUG-RESISTANT HIV-1” (priority 2007, published 2011)
Where “and” joins values, the source holds several entries; their conditions need not be identical. Identical values can stand only once.

How the values were obtained:
[1] = target: CCR5 (CC-chemokine receptor 5) (human) (UniProt P51681); assay: flow cytometry competition; unlabeled PRO 140 pre-incubated with CEM.NKR-CCR5 cells, then 5 nM PRO 140-PE as competitor; percent cells gated read-out
[2] = target: CCR5 (CC-chemokine receptor 5) (human) (UniProt P51681); assay: cell-based or functional assay
[3] = target: CCR5 (CC-chemokine receptor 5) (human) (UniProt P51681); assay: flow cytometry competition; unlabeled PRO 140 pre-incubated with CEM.NKR-CCR5 cells, then 5 nM PRO 140-PE as competitor; MFI read-out
[4] = target: CCR5 (CC-chemokine receptor 5) (human) (UniProt P51681); assay: displacement of labelled ligand; PRO 140 pre-incubated with CEM.NKR-CCR5 cells, then 2 nM 3H-UK-427,857 (small molecule) as competitor; scintillation counting

B1: PRO 140, humanized IgG4,κ anti-CCR5 monoclonal antibody (antibody, INN chains, looked up, V domains shown)
VH: EVQLVESGGGLVKPGGSLRLSCAASGYTFSNYWIGWVRQAPGKGLEWIGDIYPGGNYIRNNEKFKDKTTLSADTSKNTAYLQMNSLKTEDTAVYYCGSSFGSNYVFAWFTYWGQGTLVTVSS
VL: DIVMTQSPLSLPVTPGEPASISCRSSQRLLSSYGHTYLHWYLQKPGQSPQLLIYEVSNRFSGVPDRFSGSGSGTDFTLKISRVEAEDVGVYYCSQSTHVPLTFGQGTKVEIK
Work on B1 yielded an EC90 [1] of 17 nM, an IC50, HIV-1 reporter virus pseudotyped with JRFL envelope, U87-CD4-CCR5 cells [2] of 2.2 nM and an IC50, HIV-1 reporter virus pseudotyped with SF162 envelope, U87-CD4-CCR5 cells [2] of 1.3 nM. It also gave an IC50, PhenoSense HIV Entry assay, U87-CD4/CCR5 cells, virus DUAL [2] of 0.347 µg/mL, an IC50, PhenoSense HIV Entry assay, U87-CD4/CCR5 cells, virus JRCSF [2] of 0.574 µg/mL and an IC50, PhenoSense HIV Entry assay, U87-CD4/CCR5 cells, virus Panel 1 (subtype A) [2] of 0.199 µg/mL. The IC50, PhenoSense HIV Entry assay, U87-CD4/CCR5 cells, virus Panel 2 (subtype A) [2] was 0.305 µg/mL, the IC50, PhenoSense HIV Entry assay, U87-CD4/CCR5 cells, virus Panel 3 (subtype A) [2] was 0.414 µg/mL and the IC50, PhenoSense HIV Entry assay, U87-CD4/CCR5 cells, virus Panel 4 (subtype A) [2] was 0.508 µg/mL. For the same binder, the IC50, PhenoSense HIV Entry assay, U87-CD4/CCR5 cells, virus Panel 5 (subtype C) [2] was 0.356 µg/mL, the IC50, PhenoSense HIV Entry assay, U87-CD4/CCR5 cells, virus Panel 6 (subtype C) [2] was 0.318 µg/mL and the IC50, PhenoSense HIV Entry assay, U87-CD4/CCR5 cells, virus Panel 7 (subtype C) [2] was 0.0955 µg/mL. It also gave an IC50, PhenoSense HIV Entry assay, U87-CD4/CCR5 cells, virus Panel 8 (subtype C) [2] of 0.527 µg/mL, an IC50, PhenoSense HIV Entry assay, U87-CD4/CCR5 cells, virus Panel 9 (subtype D) [2] of 0.679 µg/mL and an IC50, PhenoSense HIV Entry assay, U87-CD4/CCR5 cells, virus Panel 10 (subtype D) [2] of 0.59 µg/mL. For the same binder, the IC50, PhenoSense HIV Entry assay, U87-CD4/CCR5 cells, virus Panel 11 (subtype D) [2] was 0.365 µg/mL, the IC50, PhenoSense HIV Entry assay, U87-CD4/CCR5 cells, virus Panel 12 (subtype D) [2] was 0.238 µg/mL and the IC50, PhenoSense HIV Entry assay, U87-CD4/CCR5 cells, virus Panel 13 (subtype F) [2] was 0.788 µg/mL. The IC50, PhenoSense HIV Entry assay, U87-CD4/CCR5 cells, virus Panel 14 (subtype F) [2] was 0.657 µg/mL, the IC50, PhenoSense HIV Entry assay, U87-CD4/CCR5 cells, virus Panel 15 (subtype F) [2] was 0.332 µg/mL and the IC50, PhenoSense HIV Entry assay, U87-CD4/CCR5 cells, virus Panel 16 (subtype F) [2] was 0.342 µg/mL. It also gave an IC50, PhenoSense HIV Entry assay, U87-CD4/CCR5 cells, virus Panel 17 (subtype G) [2] of 0.26 µg/mL, an IC50, PhenoSense HIV Entry assay, U87-CD4/CCR5 cells, virus Panel 18 (subtype G) [2] of 1.43 µg/mL and an IC50, PhenoSense HIV Entry assay, U87-CD4/CCR5 cells, virus Panel 19 (subtype G) [2] of 0.384 µg/mL. For the same binder, the IC50, PhenoSense HIV Entry assay, U87-CD4/CCR5 cells, virus Panel 20 (subtype G) [2] was 0.432 µg/mL, the IC50, PhenoSense HIV Entry assay, U87-CD4/CCR5 cells, virus Panel 21 (subtype J) [2] was 0.525 µg/mL and the IC50, PhenoSense HIV Entry assay, U87-CD4/CCR5 cells, virus Panel 22 (subtype J) [2] was 0.436 µg/mL. The IC50, PhenoSense HIV Entry assay, U87-CD4/CCR5 cells, virus Panel 23 (subtype J) [2] was 0.269 µg/mL, the IC50, PhenoSense HIV Entry assay, U87-CD4/CCR5 cells, virus Panel 24 (subtype B) [2] was 0.547 µg/mL and the IC50, PhenoSense HIV Entry assay, U87-CD4/CCR5 cells, virus Panel 25 (subtype B) [2] was 0.519 µg/mL. For the same binder, the IC50, PhenoSense HIV Entry assay, U87-CD4/CCR5 cells, virus Panel 26 (subtype B) [2] was 0.442 µg/mL, the IC50, PhenoSense HIV Entry assay, U87-CD4/CCR5 cells, virus Panel 27 (subtype B) [2] was 0.575 µg/mL and the IC50, PhenoSense HIV Entry assay, U87-CD4/CCR5 cells, virus Panel 31 JRCSF-N43D [2] was 0.67 µg/mL. It also gave an IC90, HIV-1 reporter virus pseudotyped with JRFL envelope, U87-CD4-CCR5 cells [2] of 28 nM, an IC90, HIV-1 reporter virus pseudotyped with SF162 envelope, U87-CD4-CCR5 cells [2] of 20 nM and an IC90, PhenoSense HIV Entry assay, U87-CD4/CCR5 cells, virus DUAL [2] of 1.56 µg/mL. For the same binder, the IC90, PhenoSense HIV Entry assay, U87-CD4/CCR5 cells, virus JRCSF [2] was 18.3 µg/mL, the IC90, PhenoSense HIV Entry assay, U87-CD4/CCR5 cells, virus Panel 1 (subtype A) [2] was 1.69 µg/mL and the IC90, PhenoSense HIV Entry assay, U87-CD4/CCR5 cells, virus Panel 2 (subtype A) [2] was 4.51 µg/mL. For the same binder, the IC90, PhenoSense HIV Entry assay, U87-CD4/CCR5 cells, virus Panel 3 (subtype A) [2] was 3.38 µg/mL, the IC90, PhenoSense HIV Entry assay, U87-CD4/CCR5 cells, virus Panel 4 (subtype A) [2] was 3.45 µg/mL and the IC90, PhenoSense HIV Entry assay, U87-CD4/CCR5 cells, virus Panel 5 (subtype C) [2] was 6.52 µg/mL. For the same binder, the IC90, PhenoSense HIV Entry assay, U87-CD4/CCR5 cells, virus Panel 6 (subtype C) [2] was 3.37 µg/mL, the IC90, PhenoSense HIV Entry assay, U87-CD4/CCR5 cells, virus Panel 7 (subtype C) [2] was 0.447 µg/mL and the IC90, PhenoSense HIV Entry assay, U87-CD4/CCR5 cells, virus Panel 8 (subtype C) [2] was 7.25 µg/mL. The IC90, PhenoSense HIV Entry assay, U87-CD4/CCR5 cells, virus Panel 9 (subtype D) [2] was 15.3 µg/mL, the IC90, PhenoSense HIV Entry assay, U87-CD4/CCR5 cells, virus Panel 10 (subtype D) [2] was 5.65 µg/mL and the IC90, PhenoSense HIV Entry assay, U87-CD4/CCR5 cells, virus Panel 11 (subtype D) [2] was 4.33 µg/mL. The IC90, PhenoSense HIV Entry assay, U87-CD4/CCR5 cells, virus Panel 12 (subtype D) [2] was 2.08 µg/mL, the IC90, PhenoSense HIV Entry assay, U87-CD4/CCR5 cells, virus Panel 13 (subtype F) [2] was 16.7 µg/mL and the IC90, PhenoSense HIV Entry assay, U87-CD4/CCR5 cells, virus Panel 14 (subtype F) [2] was 21.9 µg/mL. The IC90, PhenoSense HIV Entry assay, U87-CD4/CCR5 cells, virus Panel 15 (subtype F) [2] was 5.88 µg/mL, the IC90, PhenoSense HIV Entry assay, U87-CD4/CCR5 cells, virus Panel 16 (subtype F) [2] was 14 µg/mL and the IC90, PhenoSense HIV Entry assay, U87-CD4/CCR5 cells, virus Panel 17 (subtype G) [2] was 2.41 µg/mL. The IC90, PhenoSense HIV Entry assay, U87-CD4/CCR5 cells, virus Panel 18 (subtype G) [2] was 50.7 µg/mL, the IC90, PhenoSense HIV Entry assay, U87-CD4/CCR5 cells, virus Panel 19 (subtype G) [2] was 3.51 µg/mL and the IC90, PhenoSense HIV Entry assay, U87-CD4/CCR5 cells, virus Panel 20 (subtype G) [2] was 5.65 µg/mL. The IC90, PhenoSense HIV Entry assay, U87-CD4/CCR5 cells, virus Panel 21 (subtype J) [2] was 6.06 µg/mL, the IC90, PhenoSense HIV Entry assay, U87-CD4/CCR5 cells, virus Panel 22 (subtype J) [2] was 9.24 µg/mL and the IC90, PhenoSense HIV Entry assay, U87-CD4/CCR5 cells, virus Panel 23 (subtype J) [2] was 3.3 µg/mL. The IC90, PhenoSense HIV Entry assay, U87-CD4/CCR5 cells, virus Panel 24 (subtype B) [2] was 10.1 µg/mL, the IC90, PhenoSense HIV Entry assay, U87-CD4/CCR5 cells, virus Panel 25 (subtype B) [2] was 12.2 µg/mL and the IC90, PhenoSense HIV Entry assay, U87-CD4/CCR5 cells, virus Panel 26 (subtype B) [2] was 8.91 µg/mL. For the same binder, the IC90, PhenoSense HIV Entry assay, U87-CD4/CCR5 cells, virus Panel 27 (subtype B) [2] was 6.5 µg/mL, the IC90, PhenoSense HIV Entry assay, U87-CD4/CCR5 cells, virus Panel 31 JRCSF-N43D [2] was 16.1 µg/mL and the IC90, neutralization of primary R5 HIV-1 isolates, whole virus replication assay [2] was 3 µg/mL and 4 µg/mL. It also gave an EC50 [3] of 2.5 nM and an EC50 [4] of 14 nM.
